Data on three substances can be found in article PMC9436816.

The target in data set [1] is Flag-tagged PKM2^WT (pyruvate kinase M2) (human) (UniProt P14618). The data set is described as follows: cross-linking; whole cell lysates (4 mg/ml) cross-linked with 0.025% glutaraldehyde for 3 min at 37 °C, stopped with Tris-HCl pH 8.0, WB; cells with or without EGF (100 ng/ml, 1 h), with or without transfected OGT variants.
A short description of data set [2]: glutaraldehyde crosslinking, WB; tetramer fraction after EGF. The conditions noted are these: glycan lost; control: Flag-PKM2 WT, EGF-treated.
Data set [3] is described as follows: colorimetric PK activity of immunoprecipitated PKM2 after EGF. The conditions noted are these: glycan lost; control: Flag-PKM2 WT, EGF-treated.
For data set [4], the target named is pyruvate kinase M2 (PKM2), endogenous (human (endogenous in A549)) (UniProt P14618). The data set is described as follows: cross-linking; whole cell lysates (4 mg/ml) cross-linked with 0.025% glutaraldehyde for 3 min at 37 °C, stopped with Tris-HCl pH 8.0, WB; cells with or without EGF (100 ng/ml, 1 h), with or without transfected OGT variants.

As for “Flag-tagged PKM2^WT (pyruvate kinase M2), P14618 1-531 (enzyme; other documents disagree on this pair)”, the stoichiometry N (commonly the number of molecules, sites or subunits per partner or assembly) in data set [1] was 2.

On to Pyruvate kinase M2 (PKM2): T405A/S406A, for which the oligomerisation entry in data set [2] is given as “increases”. In addition, the enzymatic_activity result in data set [3] was “increases”.

As for “pyruvate kinase M2 (PKM2), endogenous, P14618 1-531 (enzyme; other documents disagree on this pair)”, the stoichiometry N in data set [4] came out at 2.
